Test results: patent US20180346544A1

Molecular target: CD276.MG.BB.z CAR (SEQ ID NO: 12)
Test: flow cytometry, Protein L staining of T cells cultured with CD276.MG.BB.z vector supernatant; the mock-transduced panel gives 2.56

Sequence of CD276.MG.BB.z CAR (SEQ ID NO: 12) (chain, as listed by the source, form in doubt): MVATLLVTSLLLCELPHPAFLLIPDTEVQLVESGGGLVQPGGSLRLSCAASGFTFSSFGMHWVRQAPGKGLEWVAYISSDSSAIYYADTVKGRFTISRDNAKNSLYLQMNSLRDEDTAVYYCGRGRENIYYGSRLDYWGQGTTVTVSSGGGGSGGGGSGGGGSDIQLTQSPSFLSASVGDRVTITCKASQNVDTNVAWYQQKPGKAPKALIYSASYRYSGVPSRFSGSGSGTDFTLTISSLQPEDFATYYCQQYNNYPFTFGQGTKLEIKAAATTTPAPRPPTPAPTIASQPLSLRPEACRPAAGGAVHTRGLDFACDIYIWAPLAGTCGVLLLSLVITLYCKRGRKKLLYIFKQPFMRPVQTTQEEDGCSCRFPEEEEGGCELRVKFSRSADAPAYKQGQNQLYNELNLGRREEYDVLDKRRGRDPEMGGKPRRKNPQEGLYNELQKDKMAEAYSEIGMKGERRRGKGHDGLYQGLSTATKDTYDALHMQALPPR

Protein L
value of the horizontal bar in the flow cytometric histogram (Protein L staining): 54.7
